The data set concerns the molecule itself. Description: western blot of BHK media, reducing (29 kDa) against non-reducing (49 kDa) conditions. As to the method: Following selection for stable cell transfectants, media isolated from pools was analyzed by western blot under reducing and non-reducing conditions using a Ztgfβ-9 antibody or an anti-EE epitope tag antibody. […] Under non-reducing conditions, Ztgfβ-9 protein migrated as at 49 kDa species. […] C-terminal EE tagged human Ztgfβ-9 expressed in BHK cells was also anti-EE affinity purified and its N-terminal sequence determined.

B1: Human Ztgfβ-9 protein (ligand)
chain: AGAPRAGRRPARPRGCADRPEELLEQLYGRLAAGVLSAFHHTLQLGPREQARNASCPAGGRPADRRFRPPTNLRSVSPWAYRISYDPARYPRYLPEAYCLCRGCLTGLFGEEDVRFRSAPVYMPTVVLRRTPACAGGRSVYTEAYVTIPVGCTCVPEPEKDADSINSSIDKQGAKLLLGPNDAPAGP
notes: also called transforming growth factor beta-9
Take B1: the binding result is given as “binds”.

The values are drawn from patent publication US20100313281A1 (published 2010).
